Reference: paper doi:10.1101/2021.04.21.440798 (bioRxiv, 2021)

Biological target: GFP-T6BP (TAX1BP1 / TRAF6-Binding Protein fused to GFP) (UniProt Q86VP1 1-789)
Assay: co-IP

Sequence of GFP-T6BP (TAX1BP1 / TRAF6-Binding Protein fused to GFP) (Q86VP1 whole entry, the tested form may be a part): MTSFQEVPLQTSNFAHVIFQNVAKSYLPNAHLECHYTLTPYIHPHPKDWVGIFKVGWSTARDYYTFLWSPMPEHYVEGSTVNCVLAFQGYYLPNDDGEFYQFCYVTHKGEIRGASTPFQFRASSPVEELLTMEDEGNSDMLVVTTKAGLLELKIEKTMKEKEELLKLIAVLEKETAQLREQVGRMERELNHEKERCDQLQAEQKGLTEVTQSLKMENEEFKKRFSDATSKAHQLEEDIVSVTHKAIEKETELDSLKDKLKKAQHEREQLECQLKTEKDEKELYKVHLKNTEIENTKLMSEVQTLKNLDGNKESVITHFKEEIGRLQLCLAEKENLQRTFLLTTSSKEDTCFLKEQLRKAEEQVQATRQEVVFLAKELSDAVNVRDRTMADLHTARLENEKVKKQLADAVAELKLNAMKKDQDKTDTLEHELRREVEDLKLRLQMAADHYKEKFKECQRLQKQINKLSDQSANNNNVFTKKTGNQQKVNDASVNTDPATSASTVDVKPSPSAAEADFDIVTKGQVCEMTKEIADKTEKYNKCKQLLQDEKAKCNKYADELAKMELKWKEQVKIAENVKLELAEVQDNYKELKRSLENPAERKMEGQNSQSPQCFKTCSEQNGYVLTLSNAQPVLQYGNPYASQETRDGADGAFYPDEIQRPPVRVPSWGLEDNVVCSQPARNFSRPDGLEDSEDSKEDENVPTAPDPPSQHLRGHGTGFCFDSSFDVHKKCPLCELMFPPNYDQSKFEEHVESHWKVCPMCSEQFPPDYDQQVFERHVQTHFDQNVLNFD

B1: Calnexin (CANX), endogenous (natural protein)
chain: HDGHDDDVIDIEDDLDDVIEEVEDSKPDTTAPPSSPKVTYKAPVPTGEVYFADSFDRGTLSGWILSKAKKDDTDDEIAKYDGKWEVEEMKESKLPGDKGLVLMSRAKHHAISAKLNKPFLFDTKPLIVQYEVNFQNGIECGGAYVKLLSKTPELNLDQFHDKTPYTIMFGPDKCGEDYKLHFIFRHKNPKTGIYEEKHAKRPDADLKTYFTDKKTHLYTLILNPDNSFEILVDQSVVNSGNLLNDMTPPVNPSREIEDPEDRKPEDWDERPKIPDPEAVKPDDWDEDAPAKIPDEEATKPEGWLDDEPEYVPDPDAEKPEDWDEDMDGEWEAPQIANPRCESAPGCGVWQRPVIDNPNYKGKWKPPMIDNPSYQGIWKPRKIPNPDFFEDLEPFRMTPFSAIGLELWSMTSDIFFDNFIICADRRIVDDWANDGWGLKKAADGAAEPGVVGQMIEAAEERPWLWVVYILTVALPVFLVILFCCSGKKQTSGMEYKKTDAPQPDVKEEEEEKEEEKDKGDEEEEGEEKLEEKQKSDAEEDGGTVSQEEEDRKPKAEEDEILNRSPRNRKPRRE
  fold enrichment over the GFP control: 3 fold
